Data on 5 molecules can be found in patent US20200283508A1 (TEXAS A AND M UNIVERSITY SYSTEM, published 2020).

Residue numbers refer to the chain shown, from its start. Read-outs that look alike come from different tables or passages of the source.

The target in assay [1] is T1, recombinant Efb-O (Efb 68-98) (Staphylococcus aureus strain Newman, UniProt P08515 1-218 = GST). Kind of assay: apparent Kd from half-maximal binding in ELISA (GraphPad Prism).
Assay [2] addresses T2, Efb-A30-67 (Staphylococcus aureus strain Newman, UniProt P08515 1-218 = GST; A6QG59 30-67). Described as above.
The target in assay [3] is T3, Efb-N30-105 (Staphylococcus aureus strain Newman, UniProt A6QG59 30-105).
T3 sequence: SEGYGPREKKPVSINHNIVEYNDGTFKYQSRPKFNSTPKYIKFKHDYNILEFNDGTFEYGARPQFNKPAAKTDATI
Described as above.

Assay [4] has as its target T1, recombinant Efb-O (Efb 68-98). Description: ELISA, apparent Kd from half maximum binding. In general terms: An ELISA detects its analyte on a solid surface through an enzyme-linked reagent.
Assay [5] has as its target T2, Efb-A30-67. Kind of assay: ELISA, apparent Kd from half maximum binding.
Assay [6] concerns the target T3, Efb-N30-105. Description: ELISA, apparent Kd from half maximum binding.
The target of assay [7] is T1, recombinant Efb-O (Efb 68-98).
For assay [8], the target named is T2, Efb-A30-67.
The target of assay [9] is T4, Coa-C (Coa 311-636) (Staphylococcus aureus strain Newman, UniProt P08515 1-218 = GST).
T4 construct: also called rCoa-C; Coa-C311-636
Description: apparent Kd from half-maximal binding in ELISA (GraphPad Prism).

The target of assay [10] is T5, Coa-R0474-505 (recombinant protein) (Staphylococcus aureus strain Newman).
T5 chain: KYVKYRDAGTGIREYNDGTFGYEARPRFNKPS
Described as above.

In assay [11] the target is T6, Coa-F (Coa 311-505) (Staphylococcus aureus strain Newman, UniProt P08515 1-218 = GST). Described as above.
For assay [12], the target named is T7, Coa-R (Coa 506-636) (Staphylococcus aureus strain Newman). Description: ELISA, antigen coated 200 ng/well, scFv-Fc at 0.5 µg/ml.
For assay [13], the target named is T4, Coa-C (Coa 311-636).
Assay [14] concerns the target T3, Efb-N30-105. Kind of assay: ELISA, antigen coated 200 ng/well, scFv-Fc at 0.5 µg/ml.
Assay [15] has as its target T4, Coa-C (Coa 311-636). Description: apparent Kd from half-maximal binding in ELISA (GraphPad Prism); column head prints M, the text prints µM.
For assay [16], the target named is T1, recombinant Efb-O (Efb 68-98). Description: solid-phase binding assay, titration (FIG. 24).
In assay [17] the target is T2, Efb-A30-67. Kind of assay: solid-phase binding assay, titration (FIG. 24).
Assay [18] addresses T3, Efb-N30-105. Kind of assay: solid-phase binding assay, titration (FIG. 24).
Assay [19] concerns the target T7, Coa-R (Coa 506-636). Description: apparent Kd from half-maximal binding in ELISA (GraphPad Prism).
Description: (§1) As well, binding was tested against Coa fragments, namely Coa-C₃₁₁₋₆₃₆, Coa-F₃₁₁₋₅₀₅, Coa-R0₄₇₄₋₅₀₅ and Coa-R₅₀₆₋₆₃₆. Recombinant proteins Efb-N₃₀₋₁₀₅, Efb-A₃₀₋₆₇, Efb-O₆₈₋₉₈, Coa-C₃₁₁₋₆₃₆, Coa-F₃₁₁₋₅₀₅, Coa-R0₄₇₄₋₅₀₅ and Coa-R₅₀₆₋₆₃₆ were diluted in 50 mM sodium carbonate pH 9.6 and immobilized at the concentration of 200 ng/well for 1 hour at room temperature. Immobilized proteins were probed for recognition in a solid-phase binding assay with different quantities of LIG40 antibodies after blocking and washing. After washing, varying concentrations of LIG40 scFv-Fc antibodies were diluted in 2% BSA+1×PBS+0.05% Tween-20 and incubated with the immobilized proteins for 1 hour at room temperature with shaking at 250 rpm. Bound scFv-Fcs were detected using polyclonal α-human IgG HRP-conjugated Ab diluted to 1:10000 in 2% BSA+1×PBS+0.05% Tween-20. HRP-conjugated Ab was incubated for 1 hour at room temperature with shaking at 250 rpm. HRP signal was developed with Sigma FAST-OPD using manufacturers guidelines.
Assay [20] has as its target T5, Coa-R0474-505 (recombinant protein). Described as above.
Description: as §1
Assay [21] addresses T6, Coa-F (Coa 311-505). The description is as above. The source holds these as a separate data set.
Description: as §1
A further assay concerns the target T8, BSA (bovine, UniProt P02769 25-607).
T8 construct: also called bovine serum albumin
Kind of assay: solid-phase binding assay (FIG. 24).

Assay [22] deals with T7, Coa-R (Coa 506-636).
Assay [23] concerns the target T4, Coa-C (Coa 311-636). This is another data set of the same source.
Assay [24] has as its target T6, Coa-F (Coa 311-505).
The target of assay [25] is T9, synthetic peptide Coa-RI (Coa 506-532) (Staphylococcus aureus strain Newman).
T9 construct: also called sCoa-RI
Kind of assay: isothermal titration calorimetry, peptide into 10 µM Fg-D, one-site model. A general note: ITC needs no label: the signal is the heat of the interaction.

For assay [26], the target named is T4, Coa-C (Coa 311-636). Kind of assay: apparent Kd from half-maximal binding in ELISA (GraphPad Prism). This is another data set of the same source.
Description: as §1
For assay [27], the target named is T9, synthetic peptide Coa-RI (Coa 506-532). Kind of assay: peptide inhibition ELISA; appreciable inhibition only above 100 µM peptide.
Assay [28] concerns the target T5, Coa-R0474-505 (recombinant protein). Kind of assay: solid-phase binding assay, titration (FIG. 24); ND in FIG. 27.
The target of assay [29] is T7, Coa-R (Coa 506-636). Kind of assay: blocking ELISA: scFv-Fc pre-incubated with 10 nM CoaR, residual binding to coated Fg (blocked ligand: Fg).

T8 sequence (P02769 25-607 limits assumed): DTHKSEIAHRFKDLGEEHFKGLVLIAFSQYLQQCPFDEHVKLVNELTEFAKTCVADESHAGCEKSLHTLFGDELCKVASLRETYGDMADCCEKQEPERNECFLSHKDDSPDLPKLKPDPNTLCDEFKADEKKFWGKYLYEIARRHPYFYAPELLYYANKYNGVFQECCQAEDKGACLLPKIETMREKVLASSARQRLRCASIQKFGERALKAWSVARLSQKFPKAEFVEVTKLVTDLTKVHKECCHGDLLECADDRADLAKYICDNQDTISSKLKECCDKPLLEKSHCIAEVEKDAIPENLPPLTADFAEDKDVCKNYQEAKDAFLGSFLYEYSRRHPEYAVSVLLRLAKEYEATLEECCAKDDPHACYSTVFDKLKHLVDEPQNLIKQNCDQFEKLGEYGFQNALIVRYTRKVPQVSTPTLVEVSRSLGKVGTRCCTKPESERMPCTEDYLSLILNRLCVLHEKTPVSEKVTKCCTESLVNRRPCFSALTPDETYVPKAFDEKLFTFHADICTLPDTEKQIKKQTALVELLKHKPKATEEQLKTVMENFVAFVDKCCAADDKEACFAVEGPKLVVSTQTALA

B1: FBE5-F11 (scFv, V domains shown)
VH: QVQLQESGGGVVQPGRSLRLSCAASGFTFSSYGMHWVRQAPGKGLEWVAVISYDGSNKYYADSVKGRFTISRDNSKNTLYLQMNSLRAEDTAVYYCAKDLASSGFDYWGQGTLVTVSS
VL: QSVLTQPPSVSAAPGQKVTISCSGSSSNIGNNYVSWYQQLPGTAPKLLIYDNNKRPSGIPDRFSGSKSGTSATLGITGLQTGDEADYYCGTWDSSLSAEVFGGGTKLTVL
With B1, the Kd in [1] is 0.396 nM; with Efb-A30-67 [2] it was 0.483 nM; in the assay with Efb-N30-105 [3], 0.219 nM; in assay [4], ~0.1 nM; in the assay with Efb-A30-67 [5] it was ~0.1 nM; with Efb-N30-105 [6] it was ~0.1 nM. Moreover, the Kd with Coa-C (Coa 311-636) [9] was found to be 0.513 nM; in assay [10], 0.213 nM; in the assay with Coa-F (Coa 311-505) [11] it was 0.244 nM. Further, the EC50 (read off the curve) (in general, the concentration giving half of the maximal effect) in assay [7] is ~0.05 µg/mL; with Efb-A30-67 [8], ~0.06 µg/mL; in the assay with Coa-C (Coa 311-636) [13], ~0.06 µg/mL. For the same molecule, the binding result with Coa-R (Coa 506-636) [12] is listed as “no binding (tested: 0.5 µg/ml)”.

B2: FBE5-E5 (scFv, V domains shown)
VH: QMQLVQSGGGVVQPGRSLRLSCAASGFTFSSYGMHWVRQAPGKGLEWVAVISYDGSNKYYADSVKGRFTISRDNSKNTLYLQMNSLRGEDTAVYYCAREGGWEPNGLDYWGQGTLVTVSS
VL: B1 VL
Consider B2, for which the Kd in assay [1] was 434 nM; in the assay with Coa-C (Coa 311-636) [9], 6.27 nM; in [10] it was 864 nM; with Coa-F (Coa 311-505) [11], 9.5 nM. Also, the binding result with Coa-R (Coa 506-636) [12] is “no binding (tested: 0.5 µg/ml)”; in the assay with Efb-N30-105 [14], “binds”.

B3: LIG40-D8 (scFv, V domains shown)
VH: B1 VH with Q1E, Q5V, S52W, K98R, L100Y, A101H, S102G, S103D
VL: DIQMTQSPSSLSASVGDTVTITCRASQDINNYLAWFQQKPGKAPKSLISAASSLQNGVPLRFSGSASGADFTLTISGLQPEDSGTYYCQQYDVFPITFGPGTKVDIK
For the molecule B3, the Kd is 0.0939 nM in the assay with Coa-C (Coa 311-636) [15], 0.0862 nM with Coa-R (Coa 506-636) [19], 2.52 nM in assay [20] and 0.112 nM in the assay with Coa-F (Coa 311-505) [21]. Besides, the binding result (in assay [16]; with Efb-A30-67 [17]; in the assay with Efb-N30-105 [18]; with BSA) was “no binding” each time. The “EC50 (read off the curve)” value with Coa-R (Coa 506-636) [22], in the assay with Coa-C (Coa 311-636) [23] and in the assay with Coa-F (Coa 311-505) [24] was ~0.01 µg/mL throughout.

B4: Fibrinogen-D fragment (other)
chain 1: VSEDLRSRIEVLKRKVIEKVQHIQLLQKNVRAQLVDMKRLEVDIDIKIRSCRGSCSRALAREVDLKDYEDQQKQLEQVIAKDLLPSR
chain 2: DNENVVNEYSSELEKHQLYIDETVNSNIPTNLRVLRSILENLRSKIQKLESDVSAQMEYCRTPCTVSCNIPVVSGKECEEIIRKGGETSEMYLIQPDSSVKPYRVYCDMNTENGGWTVIQNRQDGSVDFGRKWDPYKQGFGNVATNTDGKNYCGLPGEYWLGNDKISQLTRMGPTELLIEMEDWKGDKVKAHYGGFTVQNEANKYQISVNKYRGTAGNALMDGASQLMGENRTMTIHNGMFFSTYDRDNDGWLTSDPRKQCSKEDGGGWWYNRCHAANPNGRYYWGGQYTWDMAKHGTDDGVVWMNWKGSWYSMRKMSMKIRPFFPQQ
chain 3: KMLEEIMKYEASILTHDSSIRYLQEIYNSNNQKIVNLKEKVAQLEAQCQEPCKDTVQIHDITGKDCQDIANKGAKQSGLYFIKPLKANQQFLVYCEIDGSGNGWTVFQKRLDGSVDFKKNWIQYKEGFGHLSPTGTTEFWLGNEKIHLISTQSAIPYALRVELEDWNGRTSTADYAMFKVGPEADKYRLTYAYFAGGDAGDAFDGFDFGDDPSDKFFTSHNGMQFSTWDNDNDKFEGNCAEQDGSGWWMNKCHAGHLNGVYYQGGTYSKASTPNGYDNGIIWATWKTRWYSMKKTTMKIIPFNRLTIGEGQQHHLGGAK
notes: domain: D fragment; also called Fg-D; D fragment of human Fg
Take B4: in assay [25], the Kd is 88 nM.

B5: LIG40-A11 (scFv, V domains shown)
VH: QVQLVESGGVVVQPGGSLRLSCAASGFTFDDYAMHWVRQAPGKGLEWVSLISWDGGSTYYADSVKGRFTISRDNSKNSLYLQMNSLRAEDTALYYCVAARRGMDVWGQGTTVTVSS
VL: KIVLTQSPLSLPVTPGEPASISCRSSQSLLYSNGNNYLDWYLQKPGQSPQLLIYLGSNRAPGVPDRFSGSGSGTDFTLRISRVEAEDVGVYYCMQGRQPPFTFGPGTKVDIK
notes: also called anti-CoaR scFv-Fc antibody
Consider B5, for which the binding result was “no binding” in [16]; “no binding” in the assay with Efb-A30-67 [17]; “no binding” with Efb-N30-105 [18]; “no binding” in the assay with BSA; “binds” in assay [27]; “no binding” in [28]. Also, in the assay with Coa-C (Coa 311-636) [26], the Kd amounted to 0.133 nM. For the same molecule, the “EC50 (read off the curve)” value in the assay with Coa-R (Coa 506-636) [22] is ~0.008 µg/mL; with Coa-C (Coa 311-636) [23] it was ~0.02 µg/mL. For the same molecule, in the assay with Coa-R (Coa 506-636) [29], the “IC50 (read off the curve)” value was ~3 µg/mL.
